Measured values: article PMC10537722, “Proline Dehydrogenase and Pyrroline 5 Carboxylate Dehydrogenase from Mycobacterium tuberculosis: Evidence for Substrate Channeling” (Pathogens, 2023)

How the values were obtained:
[1] = target: T1, proline dehydrogenase (PruB) (Mycobacterium tuberculosis, UniProt O50444); experiment: […]; added FAD makes little difference to activity; format: binding
T1 construct: gene Rv1188

[2] = tested on: CC(C)=CCC/C(C)=C/CC1=C(C)C(=O)c2ccccc2C1=O; experiment: purified protein; conditions: FAD; pH 7.0; 25.0 °C
[3] = tested on: CC(C)=CCC1=C(C)C(=O)c2ccccc2C1=O; experiment: purified protein; conditions: FAD; pH 7.0; 25.0 °C
[4] = tested on: CC1=C(CCC(C)C)C(=O)c2ccccc2C1=O; experiment: purified protein; conditions: FAD; pH 7.0; 25.0 °C
[5] = tested on: COC1=C(OC)C(=O)C(CC=C(C)C)=C(C)C1=O; experiment: purified protein; conditions: FAD; pH 7.0; 25.0 °C
O=C(O)[C@@H]1CCCN1 = experiment: purified protein; conditions: FAD; pH 7.0; 25.0 °C

T1 sequence (O50444 1-329): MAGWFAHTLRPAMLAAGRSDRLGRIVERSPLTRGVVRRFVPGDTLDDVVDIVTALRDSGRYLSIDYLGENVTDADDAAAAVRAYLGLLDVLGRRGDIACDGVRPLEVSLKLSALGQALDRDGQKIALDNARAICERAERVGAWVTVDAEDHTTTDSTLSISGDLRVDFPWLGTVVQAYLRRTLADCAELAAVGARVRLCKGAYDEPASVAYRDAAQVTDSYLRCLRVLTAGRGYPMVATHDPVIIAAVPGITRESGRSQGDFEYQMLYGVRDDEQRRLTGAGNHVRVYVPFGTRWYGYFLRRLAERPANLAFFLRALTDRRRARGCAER

Row | Compound | co-purification with the enzyme (yellow protein); added FAD makes little differen [1] | Km [2] [µM] | Km [3] [µM] | Km [4] [µM] | Km [5] [µM] | kcat [5] [s⁻¹] | kcat/Km [5] [M⁻¹ s⁻¹] | Km (O=C(O)[C@@H]1CCCN1) [µM] | kcat (O=C(O)[C@@H]1CCCN1) [s⁻¹] | kcat/Km (O=C(O)[C@@H]1CCCN1) [M⁻¹ s⁻¹]
1 | Cc1cc2nc3c(=O)[nH]c(=O)nc-3n(C[C@H](O)[C@H](O)[C@H](O)COP(=O)(O)OP(=O)(O)OC[C@H]3O[C@@H](n4cnc5c(N)ncnc54)[C@H](O)[C@@H]3O)c2cc1C [FAD] | the addition of FAD to the assay buffer resulted in little difference in activity, confirming the copurification |  |  |  |  |  |  |  |  | 
2 | proline dehydrogenase (PruB) (Mycobacterium tuberculosis H37Rv) |  | 12 ± 0.66 | 23 ± 3.2 | 46 ± 13 | 9.7 ± 1.4 | 2.3 | 230000 | 2500 ± 300 | 1.7 | 690
